Experimental data as given in patent US7985715B2 (priority 2004, dated 2011).
Ends that are not written are not given here.

tested on: Anti-FLAG® M2 monoclonal antibody; test: not given; format: binding; conditions: not given

Molecule | binding of anti-FLAG Mab in the microarray (fluorescence)
MET-ASP-TYR-LYS-ASP-HIS-ASP-GLY-ASP-TYR-LYS-ASP-HIS-ASP-ILE-ASP-TYR-LYS-ASP-ASP-ASP-ASP-LYS [3×FLAG® peptide] | bound

target: fluorescently labeled Anti-FLAG® M2 monoclonal antibody (Sigma); test: fluorescence microarray: peptides immobilized on epoxide slide, probed with fluorescently labeled antibody; conditions: not given

Molecule | Mean Fluorescence Units (fluorescence units)
artificial receptor No. 50 (n=3): peptide building blocks RM RY MY (designed binder, not fully specified (N-terminus)) peptide 1: KAGAGRGM-NHMe peptide 2: Ac-KAGAGRGY-NHMe peptide 3: Ac-KAGAGMGY-NHMe | 54400
artificial receptor No. 65 (n=3): peptide building blocks RM QY MY (designed binder, not fully specified (N-terminus)) peptide 1: KAGAGRGM-NHMe peptide 2: Ac-KAGAGQGY-NHMe peptide 3: Ac-KAGAGMGY-NHMe | 40900
artificial receptor No. 15 (n=2): peptide building blocks RM MY (designed binder) peptide 1: Ac-KAGAGRGM-NHMe peptide 2: Ac-KAGAGMGY-NHMe | 64600
artificial receptor No. 69 (n=3): peptide building blocks RM HM TY (designed binder, not fully specified (N-terminus)) peptide 1: KAGAGRGM-NHMe peptide 2: Ac-KAGAGHGM-NHMe peptide 3: Ac-KAGAGTGY-NHMe | 39800
KAGAGRGM-NHMe (not fully specified (N-terminus)) [artificial receptor No. 1 (n=1): peptide building block RM] | 47700
artificial receptor No. 56 (n=3): peptide building blocks RM QH MY (designed binder) peptide 1: Ac-KAGAGRGM-NHMe peptide 2: Ac-KAGAGQGH-NHMe peptide 3: Ac-KAGAGMGY-NHMe | 32600
KAGAGMGY-NHMe (not fully specified (N-terminus)) [artificial receptor No. 7 (n=1): peptide building block MY] | 64600
artificial receptor No. 46 (n=3): peptide building blocks RM RY QH (designed binder, not fully specified (N-terminus)) peptide 1: KAGAGRGM-NHMe peptide 2: Ac-KAGAGRGY-NHMe peptide 3: Ac-KAGAGQGH-NHMe | 39500
artificial receptor No. 40 (n=2): peptide building blocks HM MY (designed binder) peptide 1: Ac-KAGAGHGM-NHMe peptide 2: Ac-KAGAGMGY-NHMe | 46800
artificial receptor No. 61 (n=3): peptide building blocks RM QM MY (designed binder) peptide 1: Ac-KAGAGRGM-NHMe peptide 2: Ac-KAGAGQGM-NHMe peptide 3: Ac-KAGAGMGY-NHMe | 47800
artificial receptor No. 49 (n=3): peptide building blocks RM RY HM (designed binder, not fully specified (N-terminus)) peptide 1: KAGAGRGM-NHMe peptide 2: Ac-KAGAGRGY-NHMe peptide 3: Ac-KAGAGHGM-NHMe | 39800
artificial receptor No. 68 (n=3): peptide building blocks RM HM MY (designed binder, not fully specified (N-terminus)) peptide 1: KAGAGRGM-NHMe peptide 2: Ac-KAGAGHGM-NHMe peptide 3: Ac-KAGAGMGY-NHMe | 34500
artificial receptor No. 22 (n=2): peptide building blocks RY MY (designed binder) peptide 1: Ac-KAGAGRGY-NHMe peptide 2: Ac-KAGAGMGY-NHMe | 53500
artificial receptor No. 10 (n=2): peptide building blocks RM TY (designed binder, not fully specified (N-terminus)) peptide 1: KAGAGRGM-NHMe peptide 2: Ac-KAGAGTGY-NHMe | 35100

Results, then the molecule that gave them:

Mean Fluorescence Units (fluorescence units) | Molecule
52100 | artificial receptor No. 72 (n=3): peptide building blocks RM MY DD (designed binder, not fully specified (N-terminus)) peptide 1: KAGAGRGM-NHMe peptide 2: Ac-KAGAGMGY-NHMe peptide 3: Ac-KAGAGDGD-NHMe
47600 | artificial receptor No. 133 (n=4): peptide building blocks RM RY QH MY (designed binder, not fully specified (N-terminus)) peptide 1: KAGAGRGM-NHMe peptide 2: Ac-KAGAGRGY-NHMe peptide 3: Ac-KAGAGQGH-NHMe peptide 4: Ac-KAGAGMGY-NHMe
57200 | artificial receptor No. 89 (n=3): peptide building blocks RY HM MY (designed binder) peptide 1: Ac-KAGAGRGY-NHMe peptide 2: Ac-KAGAGHGM-NHMe peptide 3: Ac-KAGAGMGY-NHMe
32500 | artificial receptor No. 70 (n=3): peptide building blocks RM HM DD (designed binder, not fully specified (N-terminus)) peptide 1: KAGAGRGM-NHMe peptide 2: Ac-KAGAGHGM-NHMe peptide 3: Ac-KAGAGDGD-NHMe
46700 | artificial receptor No. 93 (n=3): peptide building blocks RY MY DD (designed binder) peptide 1: Ac-KAGAGRGY-NHMe peptide 2: Ac-KAGAGMGY-NHMe peptide 3: Ac-KAGAGDGD-NHMe
47800 | artificial receptor No. 71 (n=3): peptide building blocks RM MY TY (designed binder, not fully specified (N-terminus)) peptide 1: KAGAGRGM-NHMe peptide 2: Ac-KAGAGMGY-NHMe peptide 3: Ac-KAGAGTGY-NHMe
65000 | artificial receptor No. 278 (n=5): peptide building blocks RM RY QM MY TY (designed binder, not fully specified; N-terminal acetyl (Ac-HN-); C-terminal methyl amide (-C(O)-NH-CH3)) peptide 1: KAGAGRGM peptide 2: KAGAGRGY peptide 3: KAGAGQGM peptide 4: KAGAGMGY peptide 5: KAGAGTGY

tested on: Anti-FLAG® M2 monoclonal antibody; test: not given; conditions: cited from earlier work

Molecule | binding by the commercially available antibody
ASP-TYR-LYS-ASP-ASP-ASP-ASP-LYS [FLAG® peptide] | bound
